Test [1] has as its system podocytes. Put plainly: Podocyte motility, modified Boyden chamber assay. The settings on record: for podocyte motility, in words: adenoviral overexpression. The class given is cell-based, mouse. An excerpt: (§1) This study examined the role of dynamin in actin dynamics of podocytes. An adenoviral expression system was utilized to obtain expression of various dynamin mutants with more than 90% infection efficiency in cultured differentiated mouse podocytes and analyzed the organization of the actin cytoskeleton, their migratory and endocytotic behavior (FIG. 1). […] This type of actin rearrangement in cultured podocytes is resembling actin rearrangement in damaged podocytes during proteinuria in situ (Smoyer and Mundel, 1998). […] Thus, the consequence on actin dynamics in podocytes was examined when dynamin is hyperactive by expressing known dominant activators, dynK694A and dynR725A (SEQ ID NO.4). Both mutants are predicted to live longer in the GTP-bound form. […] To further examine this surprising phenotype in a biological context, motility assays were performed next using a modified Boyden Chamber assay.
Podocyte migration was analyzed using a 12-well chemotaxis chamber (Neuro Probe) according to the manufacturer's protocol. In brief, differentiated podocytes were treated with 50 μg/ml of LPS or PAN for 24 h and then harvested for the migration assay. Bottom plates were coated with type-I collagen, while upper plates were loaded with equal number of cells (5×10^4) suspended in medium. The chamber was incubated at 37° C. for 4 h before unassembled. The membrane was then taken out, processed and finally stained with diamidino phenylindole (DAPI) (Vector). The average number of migrated cells was counted in four fields in six independent experiments.
(§2) Podocytes were grown under non-permissive conditions to 70% confluence. Cells were washed twice with 1×PBS and infected with 1.2 ml of serum-free DMEM media containing 100 μl transactivator virus, 100 μl virus expressing dyn1 or dyn2. After 2 h of infection at 37° C., media containing virus was replaced with full DMEM. If cells were treated with LPS or PAN, 50 μg/ml of LPS or 50 μg/ml PAN was added at this point. 18-24 h post-infection, cells were detached using trypsin and processed either for subcellular fractionation or tested in the motility assays as described in (Reiser et al., J Biol Chem 279, 34827-34832 (2004)). When stated, 20 μM of Z-FF-FMK CatL specific inhibitor (Calbiochem, San Diego, Calif.) was added simultaneously with addition of LPS.

Test [2] relates to podocytes. Put plainly: Actin stress fiber staining in cultured podocytes. The class given is cell-based, mouse. Conditions: for actin stress fibers, in words: overexpression in cultured podocytes.
Text: as §1
Since podocyte FP effacement is primarily driven by the rearrangement of the actin cytoskeleton (Asanuma et al., 2006), actin morphology was examined in cultured podocytes expressing different dynamin mutants. Podocytes were infected with various dynamin constructs using an adenoviral expression system that enables greater than 90% efficiency of infection. The experiments were performed using dyn1 (FIG. 22) as well as dyn2, with identical results. […] Thus, treatments which abolish actin stress fibers in cultured podocytes cause proteinuria in mice. […] Consistent with this notion, the deleterious effects of LPS (which reduces stress fibers) on kidney function were ameliorated by expression of dynR725A (which induces stress fibers).
as §2

The test system of another test is dynamin. Put plainly: Dynamin self-assembly, apparent affinity measured in vitro. Format: biochemical. An excerpt: The fact that this significant decrease in the fluorescence lifetime of ECFP is statistically insignificant is due to high fluctuations of the lifetimes between different cells (high error bar in Table 3). This is most likely due to ability of dynK694A to overcome its assembly defect under certain circumstances as shown in vitro. The fact that ECFP-dynK694A has a faster lifetime than ECFP-dynI690K is in agreement with its less severe assembly defect measured in vitro (apparent affinity of dynK694A is ˜7-fold lower then dynWT, whereas it is unmeasurable for dynI690K).

Five molecules from patent publication US9144594B2, “Cathepsin L mediated diseases and associated methods and products” (University of Miami, priority 2005, dated 2015) can be followed below.

Residue numbers refer to the chain shown, from its start. Numbers in names are those of the source. Entries after “also recorded” stand apart in the source; their conditions may differ.

For the molecule “dynWT: wild type dynamin overexpressed by adenovirus or delivered as dynamin 1 cDNA”, the “podocyte motility, in words” value with podocytes [1] was “did not change podocyte motility”. Further, the “actin stress fibers, in words” value in the test on podocytes [2] is reported as “did not dramatically alter stress fiber pattern; also recorded: did not significantly alter the F-actin staining pattern”.

B1: dynK44A: dominant-negative dynamin mutant that cannot bind GTP (protein, UniProt Q05193 1-864, looked up, variant K44A)
Dynamin-1: MGNRGMEDLIPLVNRLQDAFSAIGQNADLDLPQIAVVGGQSAGASSVLENFVGRDFLPRGSGIVTRRPLVLQLVNATTEYAEFLHCKGKKFTDFEEVRLEIEAETDRVTGTNKGISPVPINLRVYSPHVLNLTLVDLPGMTKVPVGDQPPDIEFQIRDMLMQFVTKENCLILAVSPANSDLANSDALKVAKEVDPQGQRTIGVITKLDLMDEGTDARDVLENKLLPLRRGYIGVVNRSQKDIDGKKDITAALAAERKFFLSHPSYRHLADRMGTPYLQKVLNQQLTNHIRDTLPGLRNKLQSQLLSIEKEVEEYKNFRPDDPARKTKALLQMVQQFAVDFEKRIEGSGDQIDTYELSGGARINRIFHERFPFELVKMEFDEKELRREISYAIKNIHGIRTGLFTPDMAFETIVKKQVKKIREPCLKCVDMVISELISTVRQCTKKLQQYPRLREEMERIVTTHIREREGRTKEQVMLLIDIELAYMNTNHEDFIGFANAQQRSNQMNKKKTSGNQDEILVIRKGWLTINNIGIMKGGSKEYWFVLTAENLSWYKDDEEKEKKYMLSVDNLKLRDVEKGFMSSKHIFALFNTEQRNVYKDYRQLELACETQEEVDSWKASFLRAGVYPERVGDKEKASETEENGSDSFMHSMDPQLERQVETIRNLVDSYMAIVNKTVRDLMPKTIMHLMINNTKEFIFSELLANLYSCGDQNTLMEESAEQAQRRDEMLRMYHALKEALSIIGDINTTTVSTPMPPPVDDSWLQVQSVPAGRRSPTSSPTPQRRAPAVPPARPGSRGPAPGPPPAGSALGGAPPVPSRPGASPDPFGPPPQVPSRPNRAPPGVPSRSGQASPSRPESPRPPFDL
For the molecule B1, the “podocyte motility, in words” value with podocytes [1] is recorded as “dramatically increased cell motility”. In the test with podocytes [2], the “actin stress fibers, in words” value is given as “loss of stress fibers; also recorded: abolished stress fibers”.

B2: dynK694A: dominant activator dynamin mutant impaired in self-assembly (protein)
chain: B1 Dynamin-1 with A44K, K694A
With B2, in the test with podocytes [1], the “podocyte motility, in words” value is given as “did not change podocyte motility”. In addition, the “actin stress fibers, in words” value in the test with podocytes [2] was “did not dramatically change actin stress fibers”. In addition, the “apparent affinity for self-assembly, fold lower than dynWT” value with dynamin is reported as about 7 fold.

B3: dynL356Q, G358V: dynamin mutant (SEQ ID NO.3) not recognized by cathepsin L; ELSGGA mutated to EQSVGA (protein, listed as Homo sapiens)
chain: B1 Dynamin-1 with A44K, L356Q, G358V
On to B3, for which, in the test with podocytes [2], the “actin stress fibers, in words” value is reported as “did not significantly alter the F-actin staining pattern”.

B4: dynR725A: dynamin mutant (SEQ ID NO.4) with impaired GTP hydrolysis capacity (protein, listed as Homo sapiens)
chain: B1 Dynamin-1 with A44K, R725A
In the case of B4, the “LPS-induced increase in podocyte motility, in words” value in the test with podocytes [1] (LPS-treated podocytes) was “blocked the LPS-induced increase in podocyte motility”. For the same molecule, the “podocyte motility, in words” value with podocytes [1] is “significantly decreased podocyte motility; also recorded: decreasing motility”. Besides, the “loss of stress fibers under LPS or PAN, in words” value with podocytes [2] (LPS and PAN treatment) is given as “prevented the loss of actin stress fibers; also recorded: inhibited the ability of LPS to reduce stress fibers”. Moreover, the “actin stress fibers, in words” value in the test with podocytes [2] is “significantly induced stress fibers formation; also recorded: decreasing cortical actin and inducing stress fibers”.
